Laboratory results taken from patent publication US20170052184A1 (published 2017).
Ends that are not written are not given here.

T1: HCV Core1-169 recombinant antigen (hepatitis C virus (HCV-1), UniProt P26664 1-169)
T1 sequence: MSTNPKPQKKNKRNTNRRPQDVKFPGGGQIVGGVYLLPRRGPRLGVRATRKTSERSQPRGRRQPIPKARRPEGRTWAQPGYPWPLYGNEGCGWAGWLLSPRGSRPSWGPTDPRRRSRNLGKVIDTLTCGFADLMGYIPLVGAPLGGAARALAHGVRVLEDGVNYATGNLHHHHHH

T2: C113WT biotin labeled HCV core peptide (Hepatitis C virus, also: biotin label, position not given here)
T2 peptide: RGSRPSWGPTD

T3: C113T110N biotin labeled HCV core peptide (Hepatitis C virus, also: biotin label, position not given here)
T3 peptide: RGSRPSWGPND


Columns and labels:
[1] = molecular target: T1, HCV Core1-169 recombinant antigen; assay: sandwich EIA, 25 ng/ml core1-169; capture mAb C11-7
[2] = molecular target: T1, HCV Core1-169 recombinant antigen; assay: sandwich EIA, 25 ng/ml core1-169; capture mAb C11-9
[3] = molecular target: T1, HCV Core1-169 recombinant antigen; assay: sandwich EIA, 25 ng/ml core1-169; capture mAb 208A-110
[4] = molecular target: T1, HCV Core1-169 recombinant antigen; assay: sandwich EIA, 25 ng/ml core1-169; capture mAb 208A-293
[5] = molecular target: T1, HCV Core1-169 recombinant antigen; assay: sandwich EIA, 25 ng/ml core1-169; capture mAb 208A-557
[6] = molecular target: T1, HCV Core1-169 recombinant antigen; assay: sandwich EIA, 25 ng/ml core1-169; capture mAb 208A-692
[7] = molecular target: T1, HCV Core1-169 recombinant antigen; assay: sandwich EIA, 25 ng/ml core1-169; capture mAb 208B-741
[8] = molecular target: T1, HCV Core1-169 recombinant antigen; assay: sandwich EIA, 25 ng/ml core1-169; capture mAb 208B-1096
[9] = molecular target: T1, HCV Core1-169 recombinant antigen; assay: sandwich EIA, 25 ng/ml core1-169; capture NC capture mAb
[10] = molecular target: T1, HCV Core1-169 recombinant antigen; assay: sandwich EIA, 25 ng/ml core1-169; capture mAb 208A-207-271
[11] = molecular target: T1, HCV Core1-169 recombinant antigen; assay: sandwich EIA, 25 ng/ml core1-169; capture mAb 208B-395-334
[12] = molecular target: T1, HCV Core1-169 recombinant antigen; assay: sandwich EIA, 25 ng/ml core1-169; capture mAb 208B-612-226
[13] = molecular target: T2, C113WT biotin labeled HCV core peptide; assay: EIA, captured mAb + biotin peptide
[14] = molecular target: T3, C113T110N biotin labeled HCV core …; assay: EIA, captured mAb + biotin peptide

Binder | OD492 nm [1] | OD492 nm [2] | OD492 nm [3] | OD492 nm [4] | OD492 nm [5] | OD492 nm [6] | OD492 nm [7] | OD492 nm [8] | OD492 nm [9] | OD492 nm [10] | OD492 nm [11] | OD492 nm [12] | binding result [13] | binding result [14]
208B-612-226 monoclonal antibody (antibody, V domains shown) VH: EVQLQQSGPELVKPGASVKMSCKASGYRFTSYVMHWVRQKPGQGLEWIGYIDPHNDDTKYSEKFRGKATLTSDKSSTTAYMELSSLTSEDSAVYYCVRYSYDRDYSPMDYWGQGTSVTVSS VL: QIVLTQSPTLMSASPGEKVTMTCSASSTVTYIYWYQQKPGSSPRLWMYDTFNLVSGVPARFSGSRSGTSYFLTISSMEGEDAATYYCQQYSDSPYTFGGGTKLEIKR | 1.52 OD492 | 0.64 OD492 | 0.26 OD492 | 0.28 OD492 | 0.23 OD492 | 0.18 OD492 | 0.23 OD492 | 0.7 OD492 | 0.21 OD492 | 0.24 OD492 | 0.83 OD492 | 0.23 OD492 |  | 
Neo4 monoclonal antibody (antibody, V domains shown, also called HCV Neo4) VH: QIQLKESGPAVIKPSQSLSLTCIVSGFSITSSVYCWQWIRQPPGKGLEWMGRICYDGSVDYSPSITSRGTISRDTSLNKVFFQLSSVTNEDTAMYYCSRENHIDYYDTTYPSFDVWGAGTTVTVSS VL: DIVLTQSPASLIVSLGQRATISCRASKSVNEYGYTYMHWYQQKPGLPPKLLIYLASNLDSGVPARFSGSGSGTDFTLNIHPVEEEDAATYYCQHSRELPYTFGGGTKLEIKR |  |  |  |  |  |  |  |  |  |  |  |  | no binding | no binding
HCV 208B-1096 monoclonal antibody (antibody, V domains shown) VH: QVQLQQSGAGLAKPGASVKMSCKASGYTFTANKMHWAKQRPGQGLEWIGYIDPSSGYTEYNHKIQYKATLTADTSSSTAYMQLSTLTFEDSAVYYCTNFAYWGQGTLVTVSA VL: DIVMTQTPLTLSVTIGQPASISCKSSQSLLFTNGKTYLNWFLQRPGQSPKRLIYLLSKLDSGVPDRFSGSGSGTDFTLKISRVEAEDLGVYYCLQSTYFPLTFGAGTKLELKR | 1.06 OD492 | 0.33 OD492 | 0.19 OD492 | 0.24 OD492 | 0.17 OD492 | 0.15 OD492 | 0.23 OD492 | 0.26 OD492 | 0.17 OD492 | 0.18 OD492 | 0.2 OD492 | 0.24 OD492 |  | 
HCV 208A-110 monoclonal antibody (antibody, V domains shown) VH: not shown VL: DIVLTQSPASLAVSLGQRATISCRASQSVSTSRYSYMHWYQQKPGQPPKLLIKYASNLESGVPARFSGSGSGTDFTLNIHPVAEEDTAAYYCQHSWEFPFTFGSGTKLEIKR | 0.18 OD492 | 0.13 OD492 | 0.18 OD492 | 0.2 OD492 | 0.17 OD492 | 0.14 OD492 | 0.2 OD492 | 0.21 OD492 | 0.15 OD492 | 0.17 OD492 | 0.22 OD492 | 0.2 OD492 |  | 
HCV 208A-557 monoclonal antibody (antibody, V domains shown) VH: QGQMQQSGAELVKPGASVKLSCKTSGFTFSSSYISWLKQKPGQSLEWIAWIYAGTGNTNYNQKFTDKAQLTVDTSSSTAYMQLSSLTTEDSAIYYCAISGTGFTYWGQGTLVTVSA VL: DIALTQSPASLAVSLGQRATISCRASQSVSTSRYSYMHWYQQKPGQPPELLIKYASNLESGVPARFSGSGSGTDFTLNIHPVGEEDTATYYCQHSWDFPFTFGSGTKLEIKR | 0.22 OD492 | 0.14 OD492 | 0.44 OD492 | 0.41 OD492 | 0.32 OD492 | 0.13 OD492 | 0.38 OD492 | 0.35 OD492 | 0.18 OD492 | 0.18 OD492 | 0.28 OD492 | 0.25 OD492 |  | 
HCV 208A-293 monoclonal antibody (antibody, V domains shown) VH: EVQLQQSGPELVKPGASVKISCKASGFTFTEYAMHWMKQSHGKSLEWIGGINPTNGDAIYNQKFKDKAKLTVDRSSSTAYMELRSLTSDDSALFYCARRELDYFPSWGQGTTLTVSS VL: DIVLTQSPASLIVSLGQRATISCRASQSVSTSRFSYVHWIQQKPGQPPKLLIKYASNLESGVPVRFSGSGSGTDFILNIHPVEEEDTATYFCQHSWEFPFTFGSGTKLEIKR | 2.87 OD492 | 2.6 OD492 | 0.52 OD492 | 0.49 OD492 | 0.52 OD492 | 0.34 OD492 | 0.5 OD492 | 0.41 OD492 | 0.37 OD492 | 0.39 OD492 | 0.44 OD492 | 0.37 OD492 |  | 
208A-207-271 monoclonal antibody (antibody, V domains shown) VH: QGQLQQPGAEFVKPGASLKLSCRASGYTFTSYWIHWVKQRPGQGLEWIGEIDPSDSYINQNQKFRGKATLTVDKSSSTAYMELSGLTSEDSAVYYCARHYYGVLDSWGQGTTLTVSS VL: DIVLTQSPATLSVTPGDRVSLSCRASQRIYNYLHWYQQKSHESPRLLTKYASQSISGIPSRFSGSGSGTDFILTINSVETEDFGMYFCQQSNSWPLTFGAGTKLELRR | 2.47 OD492 | 2.2 OD492 | 0.38 OD492 | 0.42 OD492 | 0.82 OD492 | 0.42 OD492 | 0.3 OD492 | 0.33 OD492 | 0.37 OD492 | 0.36 OD492 | 0.37 OD492 | 0.33 OD492 |  | 
208B-395-334 monoclonal antibody (antibody, V domains shown) VH: QVQLQQSGAGLAKPGASVKMSCKASGYTFTANKMHWTKQRPGQGLEWIGYIDPSSGYTQYNHKIQDKATLTADTSSSTAYMQLSSLTFEDSAVYYCTNFAYWGQGTLVTVSA VL: DIVLTQSPATLSVTPGDRVSLSCRASQRIYNYLHWYQQKSHESPRLLIKYASQSISGIPSRFSGSGSGTDFILTINSVETEDFGMYFCQQSNSWPLTFGAGTKLELRR | 0.89 OD492 | 0.32 OD492 | 0.21 OD492 | 0.26 OD492 | 0.21 OD492 | 0.15 OD492 | 0.21 OD492 | 0.23 OD492 | 0.2 OD492 | 0.2 OD492 | 0.23 OD492 | 0.26 OD492 |  | 
HCV 208A-692 monoclonal antibody (antibody, V domains shown) VH: QGQMQQSGAELAKPGASVKLSCKTSGFTFSSSYISWLKQKPGQSLEWIAWIFAGTGNTNYNQKFTDKAQLTVDTSSSTAYMQLSSLTTEDSAIYYCAISGTGFTYWGQGTLVTVSA VL: EVLMTQSPLSLPVSLGDQASISCRSSQSLEHSNGNTYLEWFLQRPGQPPKLLIYKVSSRFSGVPDRFSGSGSGTDFTLKISRVEAEDLGVYYCFQGSHVPFTFGSGTKLAIKR | 2.92 OD492 | 2.66 OD492 | 0.54 OD492 | 0.51 OD492 | 0.53 OD492 | 0.35 OD492 | 0.44 OD492 | 0.38 OD492 | 0.4 OD492 | 0.39 OD492 | 0.44 OD492 | 0.37 OD492 |  | 
